How the values were obtained:
[1] = molecular target: the molecule itself; assay: atomic force microscopy; mtNUCB1 alone plated on freshly cleaved mica, imaged in air in tapping mode; volume analysis of particles
Aβ42 synthetic peptide = Aβ42 synthetic peptide (UniProt P05067 672-713); assay: cell-based or functional assay

B1: Ca2+-free mutant variant of soluble nucleobindin 1 (mtNUCB1) (natural protein, human, UniProt Q02818 31-461, looked up)
chain: RGAPNKEETPATESPDTGLYYHRYLQEVIDVLETDGHFREKLQAANAEDIKSGKLSRELDFVSHHVRTKLDELKRQEVSRLRMLLKAKMDAEQDPNVQVDHLNLLKQFEHLDPQNQHTFEARDLELLIQTATRDLAQYDAAHHEEFKRYEMLKEHERRRYLESLGEEQRKEAERKLEEQQRRHREHPKVNVPGSQAQLKEVWEELDGLDPNRFNPKTFFILHKINSDGVLDEQALEALFTKELEKVYDPKNEEDDMREMEEERLRMREHVMKNVKTNQDRLVTLEAFLASTQRKEFGDTGEGWETVEMHPAYTEEELRRFEEELAAREAELNAKAQRLSQETEALGRSQGRLEAQKRELQQAVLHMEQRKQQQQQQQGHKAPAAHPEGQLKFHPDTDDVPVPAPAGDQKEVDTSEKKLLERLPEVEVPQHL
notes: His tag cleaved with PreScission protease; also called CLABP; source: E. coli BL21 (DE3), purified (Ni-NTA, Superdex200 SEC); not shown: His6, N-terminal, cleaved
stoichiometry N [1]: 2
MTT viability of PC12 cells treated for 24 h with 100 nM Aβ42 and increasing doses of mtNUCB1: IC50 of protection (Aβ42 synthetic peptide): 1400 nM

From publication PMC5318909, “Nucleobindin 1 binds to multiple types of pre-fibrillar amyloid and inhibits fibrillization” (Scientific Reports, 2017)
